Test results from paper PMC5017731.

Target: cardiac ryanodine receptor (RyR2) (rat (endogenous in neonatal ventricular cardiomyocytes)) (UniProt B0LPN4)
Chain of UniProt B0LPN4 (B0LPN4 whole entry): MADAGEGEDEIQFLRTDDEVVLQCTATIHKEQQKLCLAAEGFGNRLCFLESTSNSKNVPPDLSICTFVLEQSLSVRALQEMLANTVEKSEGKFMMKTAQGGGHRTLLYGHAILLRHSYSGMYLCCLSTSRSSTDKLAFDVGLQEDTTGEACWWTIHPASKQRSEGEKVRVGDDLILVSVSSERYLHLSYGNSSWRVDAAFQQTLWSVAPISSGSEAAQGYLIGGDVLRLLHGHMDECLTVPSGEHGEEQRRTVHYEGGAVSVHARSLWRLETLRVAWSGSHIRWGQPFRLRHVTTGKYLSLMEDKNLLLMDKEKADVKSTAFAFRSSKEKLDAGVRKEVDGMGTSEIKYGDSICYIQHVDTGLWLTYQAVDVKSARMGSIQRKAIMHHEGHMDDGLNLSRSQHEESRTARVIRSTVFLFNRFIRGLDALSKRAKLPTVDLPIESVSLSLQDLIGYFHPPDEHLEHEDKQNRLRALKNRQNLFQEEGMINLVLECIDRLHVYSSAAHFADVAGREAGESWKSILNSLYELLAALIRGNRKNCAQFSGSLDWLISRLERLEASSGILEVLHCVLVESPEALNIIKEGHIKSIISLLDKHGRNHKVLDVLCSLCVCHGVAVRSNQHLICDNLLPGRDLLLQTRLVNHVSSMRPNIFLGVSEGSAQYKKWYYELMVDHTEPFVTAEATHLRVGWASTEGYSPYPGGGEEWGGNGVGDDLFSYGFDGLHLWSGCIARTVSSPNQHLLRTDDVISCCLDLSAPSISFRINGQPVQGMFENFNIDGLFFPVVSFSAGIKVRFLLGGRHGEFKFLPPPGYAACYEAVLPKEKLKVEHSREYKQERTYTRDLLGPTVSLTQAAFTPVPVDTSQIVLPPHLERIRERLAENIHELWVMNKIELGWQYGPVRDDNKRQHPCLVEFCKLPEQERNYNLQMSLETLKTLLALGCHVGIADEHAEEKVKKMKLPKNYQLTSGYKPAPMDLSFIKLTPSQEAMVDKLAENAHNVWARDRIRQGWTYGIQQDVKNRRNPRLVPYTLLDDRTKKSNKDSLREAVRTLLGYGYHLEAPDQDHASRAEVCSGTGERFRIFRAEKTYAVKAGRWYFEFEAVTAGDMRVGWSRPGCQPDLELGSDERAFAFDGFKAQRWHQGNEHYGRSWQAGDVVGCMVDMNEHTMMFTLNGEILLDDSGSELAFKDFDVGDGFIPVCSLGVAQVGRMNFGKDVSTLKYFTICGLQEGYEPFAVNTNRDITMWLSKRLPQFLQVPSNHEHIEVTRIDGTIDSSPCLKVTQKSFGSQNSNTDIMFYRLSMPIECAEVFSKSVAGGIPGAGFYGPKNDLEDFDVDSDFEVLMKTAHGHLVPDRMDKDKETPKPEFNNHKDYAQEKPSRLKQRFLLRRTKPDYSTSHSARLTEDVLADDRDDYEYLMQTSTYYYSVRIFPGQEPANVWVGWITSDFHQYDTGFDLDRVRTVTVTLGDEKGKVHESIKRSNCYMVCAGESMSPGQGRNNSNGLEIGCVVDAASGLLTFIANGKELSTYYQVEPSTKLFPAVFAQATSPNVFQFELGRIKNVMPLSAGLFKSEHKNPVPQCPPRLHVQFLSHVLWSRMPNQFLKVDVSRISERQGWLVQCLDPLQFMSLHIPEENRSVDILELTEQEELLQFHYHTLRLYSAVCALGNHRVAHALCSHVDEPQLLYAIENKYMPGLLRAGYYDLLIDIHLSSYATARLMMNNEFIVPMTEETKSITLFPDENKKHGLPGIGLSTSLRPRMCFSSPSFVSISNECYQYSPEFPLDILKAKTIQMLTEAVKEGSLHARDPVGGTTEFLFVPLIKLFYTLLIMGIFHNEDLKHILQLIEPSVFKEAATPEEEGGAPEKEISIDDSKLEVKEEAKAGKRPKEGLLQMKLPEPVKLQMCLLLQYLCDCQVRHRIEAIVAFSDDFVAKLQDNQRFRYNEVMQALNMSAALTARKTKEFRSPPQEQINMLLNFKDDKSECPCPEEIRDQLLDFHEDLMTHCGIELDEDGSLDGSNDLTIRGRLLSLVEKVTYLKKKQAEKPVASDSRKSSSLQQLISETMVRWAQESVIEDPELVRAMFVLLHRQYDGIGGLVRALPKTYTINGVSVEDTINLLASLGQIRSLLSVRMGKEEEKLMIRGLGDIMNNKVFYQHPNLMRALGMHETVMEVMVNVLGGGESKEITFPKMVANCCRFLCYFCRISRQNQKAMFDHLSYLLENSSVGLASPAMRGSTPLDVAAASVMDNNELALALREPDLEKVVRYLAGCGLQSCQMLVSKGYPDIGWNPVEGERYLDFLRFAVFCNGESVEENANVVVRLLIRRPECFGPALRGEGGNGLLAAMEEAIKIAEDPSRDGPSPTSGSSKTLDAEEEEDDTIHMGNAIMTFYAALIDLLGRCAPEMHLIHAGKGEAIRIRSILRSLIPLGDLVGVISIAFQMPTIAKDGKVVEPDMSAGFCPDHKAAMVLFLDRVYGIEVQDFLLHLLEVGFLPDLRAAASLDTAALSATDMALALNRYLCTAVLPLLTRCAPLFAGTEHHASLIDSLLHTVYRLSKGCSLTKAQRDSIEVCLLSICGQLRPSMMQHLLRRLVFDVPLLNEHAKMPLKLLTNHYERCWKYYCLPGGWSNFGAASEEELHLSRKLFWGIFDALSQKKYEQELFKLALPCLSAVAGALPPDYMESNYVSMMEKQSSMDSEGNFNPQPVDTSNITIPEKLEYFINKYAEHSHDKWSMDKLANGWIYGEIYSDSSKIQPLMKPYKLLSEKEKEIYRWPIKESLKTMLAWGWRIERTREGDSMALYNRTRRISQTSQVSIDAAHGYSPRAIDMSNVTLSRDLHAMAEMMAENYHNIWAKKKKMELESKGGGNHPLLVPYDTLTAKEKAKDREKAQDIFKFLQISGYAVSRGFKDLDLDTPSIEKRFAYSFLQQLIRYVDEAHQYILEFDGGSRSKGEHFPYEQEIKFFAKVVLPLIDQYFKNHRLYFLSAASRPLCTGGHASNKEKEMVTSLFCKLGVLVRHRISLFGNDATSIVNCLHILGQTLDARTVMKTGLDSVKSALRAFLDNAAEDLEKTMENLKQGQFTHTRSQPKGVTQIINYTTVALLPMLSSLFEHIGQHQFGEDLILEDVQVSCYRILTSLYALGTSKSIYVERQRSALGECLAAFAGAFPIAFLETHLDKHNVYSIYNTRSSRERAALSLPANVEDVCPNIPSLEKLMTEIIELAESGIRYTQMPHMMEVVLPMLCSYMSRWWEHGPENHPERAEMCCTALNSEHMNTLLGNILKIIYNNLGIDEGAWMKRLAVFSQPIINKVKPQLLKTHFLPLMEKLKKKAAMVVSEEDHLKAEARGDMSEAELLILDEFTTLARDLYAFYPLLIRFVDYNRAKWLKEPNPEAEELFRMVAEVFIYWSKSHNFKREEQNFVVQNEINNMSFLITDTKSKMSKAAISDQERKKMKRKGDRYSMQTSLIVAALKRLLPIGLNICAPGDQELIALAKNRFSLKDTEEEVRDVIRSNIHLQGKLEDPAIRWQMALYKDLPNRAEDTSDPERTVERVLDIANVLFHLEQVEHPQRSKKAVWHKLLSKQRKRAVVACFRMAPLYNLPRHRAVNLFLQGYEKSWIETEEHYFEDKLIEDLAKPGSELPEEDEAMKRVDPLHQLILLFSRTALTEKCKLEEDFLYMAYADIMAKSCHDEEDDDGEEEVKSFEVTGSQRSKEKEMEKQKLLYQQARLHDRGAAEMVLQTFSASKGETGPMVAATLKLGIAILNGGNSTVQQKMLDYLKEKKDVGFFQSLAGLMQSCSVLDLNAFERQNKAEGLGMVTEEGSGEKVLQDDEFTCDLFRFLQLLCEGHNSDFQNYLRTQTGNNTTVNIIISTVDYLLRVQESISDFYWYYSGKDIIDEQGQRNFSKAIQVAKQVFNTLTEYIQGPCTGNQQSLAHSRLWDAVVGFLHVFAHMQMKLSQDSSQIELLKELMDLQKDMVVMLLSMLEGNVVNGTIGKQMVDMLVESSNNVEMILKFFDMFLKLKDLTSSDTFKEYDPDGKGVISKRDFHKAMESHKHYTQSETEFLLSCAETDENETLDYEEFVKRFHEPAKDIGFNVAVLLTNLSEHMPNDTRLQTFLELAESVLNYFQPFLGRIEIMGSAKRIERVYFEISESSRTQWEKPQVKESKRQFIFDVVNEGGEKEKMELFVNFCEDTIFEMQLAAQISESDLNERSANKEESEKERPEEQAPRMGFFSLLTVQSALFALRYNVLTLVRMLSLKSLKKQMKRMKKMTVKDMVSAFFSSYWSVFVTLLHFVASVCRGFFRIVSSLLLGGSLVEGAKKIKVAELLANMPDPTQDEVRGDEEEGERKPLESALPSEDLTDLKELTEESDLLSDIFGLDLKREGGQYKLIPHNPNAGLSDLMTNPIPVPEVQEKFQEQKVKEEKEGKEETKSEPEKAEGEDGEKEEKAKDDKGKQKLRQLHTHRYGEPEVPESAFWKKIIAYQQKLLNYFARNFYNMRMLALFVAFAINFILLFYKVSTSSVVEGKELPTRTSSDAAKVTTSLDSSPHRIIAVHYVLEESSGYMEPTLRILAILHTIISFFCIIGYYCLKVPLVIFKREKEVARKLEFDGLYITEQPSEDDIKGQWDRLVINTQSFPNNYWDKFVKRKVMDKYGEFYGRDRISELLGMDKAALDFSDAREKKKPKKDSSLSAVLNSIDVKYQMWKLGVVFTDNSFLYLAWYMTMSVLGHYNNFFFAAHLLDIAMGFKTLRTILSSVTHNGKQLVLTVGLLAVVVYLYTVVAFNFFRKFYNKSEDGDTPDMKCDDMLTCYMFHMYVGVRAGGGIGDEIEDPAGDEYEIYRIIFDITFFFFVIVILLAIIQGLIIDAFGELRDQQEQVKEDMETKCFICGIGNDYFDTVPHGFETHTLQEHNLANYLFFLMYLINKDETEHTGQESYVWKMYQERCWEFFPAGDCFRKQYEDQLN

B1: C-terminal half of GSTM2 (GSTM2C) (domain or fragment)
chain: PMTLGYWNIRGLAHSIRLLLEYTDSSYEEKKYTMGDAPDYDRSQWLNEKFKLGLDFPNLPYLIDGTHKITQSNAILRYIARKHNLCGESEKEQIREDILENQFMDSRMQLAKLCYDPDFEKLKPEYLQALPEMLKLYSQFLGKQPWFLGDKITFVDFIAYDVLERNQVFEPSCLDAFPNLKDFISRFEGLEKISAYMKSSRFLPRPVFTKMAVWGNK
In the case of B1, the field-stimulated myocyte shortening after 2 h with 5, 10 and 15 uM GSTM2C, as percent of control (3.0%, 10.9% and 42.8%); significant only at 15 uM is reported as 42.8 % of control.
